Protein production data for 13 sequences are collected here from a protein production outcome set (Wang et al. 2014).

The nature of the series: label from the status in PepcDB records.
As to “MRNLRKDIVSRSSVGSIQIHGAKTHNLRDVTVCIPKHALVGVAGVSGSGKTSLVSTLAVGAQQAVSSLFPAFVQARLNTLEPGLVDGLQGLTFTAIVGQKKFSRNARSSVSTASGIAPYLRLLFSRSGSPSAGYSPSYSPNDPRGMCMDCSGLGYVDDIDLQELIAPDRSLNEGAVRFPSFEPGTYRWKRLVCSGLFDPDVPWKELPEASRKLLLHGQGVRLERPLTGYPKHGIFDGIIPRLKASYLEKANAKTTEKEDAALRRIVKRVVCPHCHGQRINEAARASRIEGLNIAEASHLSIDECIAFIKTITDEITEAPRQAVLARLNNMRDIGLGYLSLDRPTDTLSGGEAQRLRLVSLLDAPITDATFVMDEPSSGLHPADIERLLRSLRKLRDSGNTVIIVEHNLQVLAACDHVVELGPGAGDDGGRVLFEGSPRSLTRSDTPTGKALRAGIQLNRRSRPATDVIEVTHARCNNLGDVSVSFPVGALTVVSGVAGSGKSSLASALAQQHPEVTIIDQLPLAASSRSSILTALGLESPIREAFSKISGLTTSWFSANEKGACPLCKGRGTTHVDMAFMDDVQTPCERCGGRKFNETTMAVRLPMGSLNPTIADVLDSGLNQVSELYATQDDVLTVISLLQQVGLGYLTLGRTLNTLSGGELQRIKLVQFLKEHREEQESVLVLDEITTGLHPKDVEQLIQFLRRLSERGATAIAIDHNPGLISQADYNIDLGPGAEAAGGTVVFSGTAQGLADCPESTTGKWLHKLNCSSSGVEQVP”, the protein production result is “failed”.

As to “MRNLTFLTRCKPLAASVLALMLLGGAAKSFANNDLPDLGTAAVNTFSLEKEMIYGDAYMRVIRSSAPMLNDPVLSQYLTELGNKLVAHATGVKTPFYFFLLQNDEINAFAFFGGHVAVHTGLFLNADNESELASVLGHEITHVTQRHLARSLEAQQKTGPATVAGLLGAILLTIAVPQAGMAALATTQAMATQSKINYTRLHEKEADRIGMQILVDAGFDPNASAEFFGKLASRYRFTTTPPQMLLTHPLPESRISEARDRAQQYPHRYVPDNLNFQLAKARIQVRFSSFSDDAVLSMFEKQLNKQTYGFKEAALYGKALALFRLKKFDESEKIVDELLKIDDNNLFYIDTKTDLLNERKDYAQAIKLLEAQRNLKPTSQVINANLANIYIEAGEPAKAIPLLEDMIFLDKQNQLPYQLLNLAYKKLGNPGMEYFSNAELMALGANYKGAIDQLNFAYRASEGNQLQLARIEARIRQFKQADREMDALKLEHHHHHH”, the protein production entry is listed as “failed”. Take “MRNSKSLKLTIMGIGIALNIIGAFIALNLRLPIYLDSIGTIMVGFVLGPVYGMATGVLGSVVSGITFDIYSLYFAPVQIFTGFFAGYFYEKGLMKGKKLFLSVFVMTLFVSFTGACLTAYIFGGITSSGSSYIIVILNNLGVNPVVSAFITQFLTDYCDKLVAVLIMLQVVVRLPKNILLRVQNN”: the protein production result is listed as “failed”. In the case of “MRPEHIPNIISTLRIFLVYPVVHLMLAERYTAALALFVVAGVSDAIDGFLAKHYGWQSRLGSYLDPLADKLLLVCCFVAGAWLGLLPVWMAAAVLLRDAVIVTGAIAYYLLLHPFDGQPILASKLNTLLQLAFIVAILFNRGVSELPPFLLDGLLAATLATTIASGAIYVYVWGRNYRLETAQGRR” it was “failed”; in that of “MRPEIAVLDIQGQYRVYTEFYRADAAENTIILINGSLATTASFAQTVRNLHPQFNVVLFDQPYSGKSKPHNRQERLISKETEAHILLELIEHFQADHVMSFSWGGASTLLALAHQPRYVKKAVVSSFSPVINEPMRDYLDRGCQYLAACDRYQVGNLVNDTIGKHLPSLFKRFNYRHVSSLDSHEYAQMHFHINQVLEHDLERALQGARNINIPVLFINGERDEYTTVEDARQFSKHVGRSQFSVIRDAGHFLDMENKTACENTRNVMLGFLK”, “failed”. Turning to “MRPGAPGPLWPLPWGALAWAVGFVSSMGSGNPAPGGVCWLQQGQEATCSLVLQTDVTRAECCASGNIDTAWSNLTHPGNKINLLGFLGLVHCLPCKDSCDGVECGPGKACRMLGGRPRCECAPDCSGLPARLQVCGSDGATYRDECELRAARCRGHPDLSVMYRGRCRKSCEHVVCPRPQSCVVDQTGSAHCVVCRAAPCPVPSSPGQELCGNNNVTYISSCHMRQATCFLGRSIGVRHAGSCAGTPEEPPGGESAEEEENFV”, the protein production entry was “failed”. “MRPLISICMIVKNEAHILRQSLASFRKFTEEIIIVDTGSTDDTKEIAKEFTDFVYDFEWTGNFSDARNFAAKHATGKWILAIDADECLEEESYRKLEKQLKSPIEPIQMAQIISFTGEKGRVTTTNQMARVYKNDGTICFRGVIHEQLEAVDKHAIEAGLAEVKIYHYGYMSEIVEKQDKSDRNLRLLEKEVKNNKNSGFVHFNIGQEMNRLGNKKEALKEFSEAFRLRDNNHYIWAKLSAYHISELLEQEKRYDESLAIIEEAKVIWPNVPEFPLKKANILYVNHQLEDAKEIYKSLLENTAIDYQPIVLYEATNFMPHKMLGTIYLEEKDYTRAMTHFSKAYAENSSDYGVMFQMIMLLSKFHQPKEIFAFMERHNFISSTETGLRLLSMTTQQGYAELSELIVQSLTDVYPPVAEATEVKIATIRNVFPVISESAILFGIKEELIDAADLCLWHYENPQLPIERVMKNSDVGEIYDFIFENGPKISKKRYLFVLERAIALGKGEFADYLLALRNVYHDSINSHIADLFFQYDFADIALDFYNIVDADEVTKQGYINLINYLVDADVLDEALAIAERGIDNFSTDFRFYLWAIKIDTENRANRISEAMDEFPNNRYLAKLLDEVTMLQDTVTNNR”: the protein production result is given as “failed”. As to “MRPVLVLLHRYVGLATALFLFLAGLTGSLLAFHHEIDEWLNPGFYAVGEGGERLSPGSLVQRVESRYPRQLVWYMEYPEAGGHPALLATVPREAGAKVEHDVFYLDPVSGEEVGKRLWAACCFQPANLVPWVLEFHHNLTLPGNWGLYLMGGVAMFWFLDCFVGAWLTLPRGRPFWSKWTTAWKIKRGNAYRFNFDLHRAGGLWLWLLLAPVALSSVALNLPSQVFKPLVSLFSPIEPSVYEARGRLPREQLGETRLDYDRTFQLASVEAARLGIAEPIGELYYSFEYNFFGAGFGDHDDPMGKSWLFFHGSDGRLLGQEVAGQGSWGERFYRLQYPIHGGRIAGLPGRIAIAALGLAIAGLSLTGVYIWWRKRRARHWNGR”, the protein production entry is listed as “failed”.

In the case of “MRPVYFLSDFGLEDPYVAVVKAVLAERAPGPAVVDLAHALPPQDLRRAAYALFEALPYLPEGAVVLAVVDPGVGTARRAVAALGRWTYVGPDNGLFTLAWLLDPPRRAFLLEPPRPRPKAALPGWAPGEATFHGRDVFAPAAAHLALGLPPEGLGPEVPVETLARLPLALTEGPEGEVLTFDRFGNAITTLLRAPVGGFVEVGGRRVPVRRTFGEVPEGAPVAYLGSAGLLEVAVNRGSAREALGLKEGMPVRLL”, the protein production entry is “not failed”. In the case of “MRQAKTDLAEQIFSATDRLMAREGLNQLSMLKLAKEANVAAGTIYLYFKNKDELLEQFAHRVFSMFMATLEKDFDETKPFFEQYRQMWKNIWYFLQENPTILSNLKQYESLPNFKDICKNIKNCRWDLFCHQAQKAGLLAELSEDILFLLSLKTAINLASDAKFIDFDLKPEILESVIERSWRAIQK”, the protein production entry is reported as “not failed”. On to “MRQFQRLANDGLKSCPPKSGCPMHILFIGYGKTSQRIAKHLFAQGHQITAVSRHPKPQDFVTHLTQDIHQLNLDQCSPIDWVYVLLAPENSDAQSYKHTYLDSVQPIARALATHPVKRVVVVSSTRVYGQQQAGEIVNDQTIAKPVDQQGAYLLEMEEAWQNAFAEHCTIIRPSGIYGNSISRMVKLAKNTTEYPVIHYSNRIHIEDLARFLAFMTQMPCCQPSYLISDGHPYPLHEIILWFQKQLALPQLVLQSDSVTGKRIVPVNFLTTGFELQAEDCFEIYGNLLRSVDT”, for which the protein production entry is listed as “failed”. In the case of “MRQVTVGGMRVDLVSEIASLAFDKSWLFANVTDAVIAENRSWLDHRYIEPATGRFILSHHSYLVRAPRWTAIVDTCCGNHKKRPRVPVWNDLNQPYLENMRALGVAPEEVDFVMCTHLHVDHVGWNTRLLDGRWVPTFPNARYLMGREEYRHFEAAHNAAPKSPVNHGSFEDSVLPVVAAGLAEFVETDHRLFEDRDAALRFAPAPGHTAGNMQIHLNGGHDHAVMSGDVIHHPIQCAAPWLSNAADVDPAAAVATRMALLEELADTPSYLLTGHFPAPTAGRVIRHGDTYRFRFED” it was “failed”; in that of “MRRASQMFDFIGFKEGAMAFLLAFALAGLFTIAFKYVYQWVTPYNEKALIREGNTAAAIALAGALIGYVLPLASALSHTVSLPEFAAWATLAGVIQIAAFTGVRLVALPDVKARIENGEVSVGVYLAGISIAVGLLNAACMTT”, “failed”.
